We go through 21 molecules from patent US20250296971A1, “GASTRIC INHIBITORY PEPTIDE RECEPTOR LIGANDS” (priority 2021, published 2025).

Experiment [1] has as its target biotinylated extracellular domain of the human GIP receptor (bioGIPR) (human) (UniProt P48546). Description: SPR single cycle kinetics, bioGIPR captured on chip; category A: pKD >9.0.
Experiment [2] has the same target. Description: SPR single cycle kinetics, bioGIPR captured on chip; category A: t1/2 >15 min.
Experiment [3] addresses human Gastric Inhibitory Peptide Receptor (human) (UniProt P48546). Description: FACS competition with GIP-057 on CHO-K1-hGIPR cells; pIC50 category B: 7.1-8.0.
Experiment [4] concerns the target human Gastric Inhibitory Peptide Receptor (GIPR) (human) (UniProt P48546). Description: FACS competition vs biotinylated GIP-057 on CHO-K1-hGIPR cells; category B: pIC50 7.1-8.0.

*1 amine or outer side, *2 acyl side, *3 side chain or, on linkers, in order; H or OH if unused. Bridges are numbered along the chain shown (N, C = ends). Primed or numbered codes have the meaning given here. Where no end group is shown, it is not given here. [ ]: non-standard residue; d: D form. The star is where a group is joined. Ttds = 1,13-diamino-4,7,10-trioxatridecan-succinamic acid, NCCCOCCOCCOCCCNC(=O)CCC(=O)*; 2,6‑lutidylidene = 2Lut, Cys-Cys crosslink via 2,6-lutidylidene; tMeBn(DOTA-PP) = mesitylene bridge bearing DOTA via piperazine; APAc″ = 4-amino-1-carboxymethylpiperidine, NC1CCN(CC(=O)*)CC1; dE(AGLU) = D-glutamic acid bearing 1-amino-1-deoxy-D-glucitol; MeO36PEG = monodisperse PEG 36 units conjugated with acetyl; Pro(trans-4-NH2) = O=C([C@@H]1C[C@@H](N[*:3])CN1[*:1])[*:2]; DOTA = O=C(O)CN1CCN(CC(=O)O)CCN(CC(=O)*)CCN(CC(=O)O)CC1; MeO2kDaPEGAc″ = methoxy polydisperse 2 kDa PEG acetyl; 2Lut = 2,6-lutidylidene bridge between two thiols; Trp(5-Cl) = N[C@@H](Cc1c[nH]c2ccc(Cl)cc12)C(=O)O; Trp(6-Cl) = N[C@@H](Cc1c[nH]c2cc(Cl)ccc12)C(=O)O; Phe(3,5-Cl2) = N[C@@H](Cc1cc(Cl)cc(Cl)c1)C(=O)O; Pyridine(2,6-diCH2) = c1cc(C[*:1])nc(C[*:2])c1; APAc = 4-amino-1-carboxymethylpiperidine; 1Nal = N[C@@H](Cc1cccc2ccccc12)C(=O)O; mXylylene = c1cc(C[*:1])cc(C[*:2])c1; Glutaryl = O=C(CCCC(=O)[*:2])[*:1]; AGLU = 1-amino-1-deoxy-D-glucitol; Hyp = O=C(O)[C@@H]1C[C@@H](O)CN1; Cysteamide = C(CS[*:3])N[*:1]; Suc = O=C(CCC(=O)[*:2])[*:1]; hLeu = CC(C)CC[C@H](N)C(=O)O; dDab = NCC[C@@H](N)C(=O)O; Api = NC1(C(=O)O)CCNCC1; Thp = NC1(C(=O)O)CCOCC1; Aib = CC(C)(N)C(=O)O A value given as a limit tells only on which side of the number the result lay.

Sequence of human Gastric Inhibitory Peptide Receptor (human) (P48546 22-466 limits assumed): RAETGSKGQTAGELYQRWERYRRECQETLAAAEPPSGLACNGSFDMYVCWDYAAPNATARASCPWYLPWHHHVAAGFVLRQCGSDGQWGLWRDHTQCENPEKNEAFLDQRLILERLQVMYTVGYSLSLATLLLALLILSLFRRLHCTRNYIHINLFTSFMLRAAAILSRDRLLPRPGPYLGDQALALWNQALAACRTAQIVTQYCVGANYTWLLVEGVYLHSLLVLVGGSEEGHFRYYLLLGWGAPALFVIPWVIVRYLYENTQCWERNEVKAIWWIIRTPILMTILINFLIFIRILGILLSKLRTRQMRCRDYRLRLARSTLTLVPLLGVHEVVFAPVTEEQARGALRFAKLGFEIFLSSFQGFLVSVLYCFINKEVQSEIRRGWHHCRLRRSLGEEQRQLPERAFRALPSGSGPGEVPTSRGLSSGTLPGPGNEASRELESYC
Sequence of human Gastric Inhibitory Peptide Receptor (GIPR) (human) (P48546 22-466 limits assumed): as above
Sequence of biotinylated extracellular domain of the human GIP receptor (bioGIPR) (human) (P48546 24-138 limits assumed): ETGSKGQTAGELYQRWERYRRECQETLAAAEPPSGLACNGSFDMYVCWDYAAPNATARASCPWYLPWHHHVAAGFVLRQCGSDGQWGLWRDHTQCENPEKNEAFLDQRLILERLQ

The molecule “AGLU-Glutar-APAc-Asp-Trp-5Clw-Tap(AGLU-Glutar)-Glu-leu-[Cys(2Lut)-Apc(DOTA-glu(AGLU))-Leu-Ile-Cys]-APAc-glu(AGLU)-NH2 (peptide)” returned a pKD in experiment [1] of more than 9 pkd. In addition, the t1/2 in experiment [2] was more than 15 min. The molecule also displayed a pIC50 in experiment [3] of 7.1 to 8 pic50.

“DOTA-Ttds-Nmd-Trp-Trp-Pro-Glu-Leu-[Cys(3MeBn)-Aib-Leu-Ile-AET] (peptide)”: the pIC50 in experiment [3] lay in the range of 7.1 to 8 pic50.

Regarding Ac-DW[1Nal][Pro(trans-4-NH2)](DOTA)E[hLeu]C[Aib]LIC-NH2 (linker 7-11 via mXylylene) [Ac-Asp-Trp-1Ni-Tap(DOTA)-Glu-Hle-[Cys(3MeBn)-Aib-Leu-Ile-Cys]-NH2], the pIC50 in experiment [4] was 7.1 to 8 pic50.

{MeO36PEG-APAc″}-DW[Trp(5-Cl)][Hyp]E[dL]C[Api](DOTA)LIC-{dE(AGLU)-NH2} (linker 7-11 via Pyridine(2,6-diCH2)) [MeO36PEG-APAc-Asp-Trp-5Clw-Hyp-Glu-leu-[Cys(2Lut)-Apc(DOTA)-Leu-Ile-Cys]-glu(AGLU)-NH2] came in with a pIC50 in experiment [3] of 7.1 to 8 pic50.

Molecule Ac-DW[Trp(5-Cl)][Hyp]E[dL]C[Thp]LIC-NH2 (linker 7-11 via tMeBn(DOTA-PP)) [Ac-Asp-Trp-5Clw-Hyp-Glu-leu-[Cys(tMeBn(DOTA-PP))-Thp-Leu-Ile-Cys]-NH2] returned a pIC50 in experiment [3] of 7.1 to 8 pic50.

In turn, Suc-W[Trp(5-Cl)][Hyp]E[dL]C[Api](MeO2kDaPEGAc″)LIC-{APAc-Lys(DOTA)-NH2} (linker 6-10 via Pyridine(2,6-diCH2)) [HO-Succinyl-Trp-5Clw-Hyp-Glu-leu-[Cys(2Lut)-Apc(MeO2kDaPEGAc)-Leu-Ile-Cys]-APAc-Lys(DOTA)-NH2] registered a pIC50 in experiment [3] of 7.1 to 8 pic50.

B1: HO-Succinyl-Trp-5Clw-Hyp-Glu-leu-[Cys(2Lut)-Thp-Leu-Ile-Cys]-APAc-lys(MeO2kDaPEGAc)-Lys(DOTA)-NH2 (peptide)
peptide: Suc-W[Trp(5-Cl)][Hyp]E[dL]C[Thp]LIC
modifications: linker 6-10 via 2Lut; not fully specified (C-terminus); printed as HO-Succinyl-Trp-5Clw-Hyp-Glu-leu-[Cys(2Lut)-Thp-Leu-Ile-Cys]-APAc-lys(MeO2kDaPEGAc)-Lys(DOTA)-NH2
B1 had a pIC50 in experiment [3] of 7.1 to 8 pic50.

As to Ac-DW[Trp(5-Cl)][Hyp]W[dL]C[Thp]LIC-NH2 (linker 7-11 via Pyridine(2,6-diCH2)) [Ac-Asp-Trp-5Clw-Hyp-Trp-leu-[Cys(2Lut)-Thp-Leu-Ile-Cys]-NH2], the pIC50 in experiment [4] lay in the range of 7.1 to 8 pic50.

B2: AGLU-Glutar-APAc-Hse-Trp-5Clw-Hyp-Glu-leu-[Cys(2Lut)-Apc(DOTA-glu(AGLU))-Leu-Ile-Cys]-APAc-glu(AGLU)-NH2 (peptide)
peptide: XWXXEXCXLIC
modifications: not fully specified; N-term AGLU-Glutar-APAc; Hse; 5Clw; Hyp; leu (D-Leu); thioether cycle [Cys(2Lut)..Cys]; Apc(DOTA-glu(AGLU)); C-term APAc-glu(AGLU)-NH2
In experiment [3], B2 returned a pIC50 of 7.1 to 8 pic50.

For {AGLU-Glutaryl-APAc″}-DW[Trp(5-Cl)][Hyp]E[dL]C[Api](DOTA)LIC (linker 7-11 via Pyridine(2,6-diCH2); not fully specified (C-terminus)) [AGLU-Glutar-APAc-Asp-Trp-5Clw-Hyp-Glu-leu-[Cys(2Lut)-Apc(DOTA)-Leu-Ile-Cys]-lys(MeO36PEG)-NH2], the pIC50 in experiment [3] lay in the range of 7.1 to 8 pic50.

B3: AGLU-Glutar-APAc-Hse-Trp-5Clw-Tap-Glu-leu-[Cys(2Lut)-Apc(DOTA)-Leu-Ile-Cys]-APAc-glu(AGLU)-NH2 (peptide)
peptide: XWXXEXCXLIC
modifications: N-term AGLU-Glutar-APAc; Hse; 5Clw; Tap; leu (D-Leu); thioether cycle [Cys(2Lut)..Cys]; Apc(DOTA); C-term APAc-glu(AGLU)-NH2
Molecule B3 gave a pIC50 in experiment [3] of 7.1 to 8 pic50.

In the case of {AGLU-Glutaryl}-DW[Trp(5-Cl)][Pro(trans-4-NH2)]E[dL]C[dDab](DOTA)LIC-{APAc-dE(AGLU)-NH2} (linker 7-11 via 2,6‑lutidylidene) [AGLU-Glutar-Asp-Trp-5Clw-Tap-Glu-leu-[Cys(2Lut)-dab(DOTA)-Leu-Ile-Cys]-APAc-glu(AGLU)-NH2], in experiment [3], the pIC50 lay in the range of 7.1 to 8 pic50.

{AGLU-Glutaryl}-DW[Trp(5-Cl)][Pro(trans-4-NH2)]E[dL][dC][Api](DOTA)LI[dC]-{APAc-dE(AGLU)-NH2} (linker 7-11 via Pyridine(2,6-diCH2)) [AGLU-Glutar-Asp-Trp-5Clw-Tap-Glu-leu-[cys(2Lut)-Apc(DOTA)-Leu-Ile-cys]-APAc-glu(AGLU)-NH2]: the pIC50 in experiment [3] lay in the range of 7.1 to 8 pic50.

{MeO36PEG-APAc}-DW[Trp(5-Cl)][Pro(trans-4-NH2)]E[dL]C[Api](DOTA)LIC-{APAc-dE(AGLU)-NH2} (linker 7-11 via Pyridine(2,6-diCH2)) [MeO36PEG-APAc-Asp-Trp-5Clw-Tap-Glu-leu-[Cys(2Lut)-Apc(DOTA)-Leu-Ile-Cys]-APAc-glu(AGLU)-NH2] came in with a pIC50 in experiment [3] of 7.1 to 8 pic50.

In turn, Ac-DW[Trp(5-Cl)][Hyp]P[dL]C[Thp]LIC-NH2 (linker 7-11 via Pyridine(2,6-diCH2)) [Ac-Asp-Trp-5Clw-Hyp-Pro-leu-[Cys(2Lut)-Thp-Leu-Ile-Cys]-NH2] registered a pIC50 in experiment [4] of 7.1 to 8 pic50.

Take {MeO36PEG-APAc}-DW[Trp(5-Cl)][Hyp]E[dL]C[Api](DOTA)LIC-{APAc-dE(AGLU)-NH2} (linker 7-11 via Pyridine(2,6-diCH2)) [MeO36PEG-APAc-Asp-Trp-5Clw-Hyp-Glu-leu-[Cys(2Lut)-Apc(DOTA)-Leu-Ile-Cys]-APAc-glu(AGLU)-NH2]: in experiment [3], the pIC50 lay in the range of 7.1 to 8 pic50.

In turn, Ac-DW[Trp(5-Cl)][Hyp]F[dL]C[Thp]LIC-NH2 (linker 7-11 via Pyridine(2,6-diCH2)) [Ac-Asp-Trp-5Clw-Hyp-Phe-leu-[Cys(2Lut)-Thp-Leu-Ile-Cys]-NH2] registered a pIC50 in experiment [4] of 7.1 to 8 pic50.

In experiment [3], {AGLU-Glutaryl}-DW[Trp(5-Cl)][Pro(trans-4-NH2)]E[dL]C[dK](DOTA)LIC-{APAc-dE(AGLU)-NH2} (linker 7-11 via Pyridine(2,6-diCH2)) [AGLU-Glutar-Asp-Trp-5Clw-Tap-Glu-leu-[Cys(2Lut)-lys(DOTA)-Leu-Ile-Cys]-APAc-glu(AGLU)-NH2] had a pIC50 of 7.1 to 8 pic50.

In experiment [3], {DOTA-Ttds}-D[Trp(6-Cl)]WPE[dL]C[Aib]LI[Cysteamide] (linker 7-11 via mXylylene) [DOTA-Ttds-Asp-6Clw-Trp-Pro-Glu-leu-[Cys(3MeBn)-Aib-Leu-Ile-AET]] had a pIC50 of 7.1 to 8 pic50.

In experiment [4], {DOTA-Ttds}-DW[Phe(3,5-Cl2)][Hyp]E[dL]C[Thp]LIC-NH2 (linker 7-11 via Pyridine(2,6-diCH2)) [DOTA-Ttds-Asp-Trp-Egn-Hyp-Glu-leu-[Cys(2Lut)-Thp-Leu-Ile-Cys]-NH2] showed a pIC50 of 7.1 to 8 pic50.

Regarding {AGLU-Glutaryl}-DW[Trp(5-Cl)][Pro(trans-4-NH2)]E[dL][dC][Api](DOTA)LIC-{APAc-dE(AGLU)-NH2} (linker 7-11 via Pyridine(2,6-diCH2)) [AGLU-Glutar-Asp-Trp-5Clw-Tap-Glu-leu-[cys(2Lut)-Apc(DOTA)-Leu-Ile-Cys]-APAc-glu(AGLU)-NH2], the pIC50 in experiment [3] fell in the range of 7.1 to 8 pic50.
